Reference: article PMC12691818

Assays:
[1] = molecular target: Xenopus laevis PP1c (XePP1c) (Xenopus laevis (endogenous in oocytes))
[2] = molecular target: PfPP1c (Plasmodium falciparum Protein Phosphatase 1 catalytic subunit, recombinant) (Plasmodium falciparum) (UniProt Q8ILV1)
[3] = molecular target: Xenopus laevis PP1c (XePP1c) (Xenopus laevis (endogenous in oocytes)); remark: listed apart in the source
[4] = molecular target: Xenopus laevis PP1c (XePP1c) (Xenopus laevis (endogenous in oocytes)); remark: listed apart in the source

In the case of “PbRpt3 ATP-binding site mutant (HA-tagged PbRpt3 substituted for alanines in positions K188, D241, N288 and Q356) (natural protein)”, the percentage of GVBD of progesterone-treated Xenopus oocytes microinjected with PbRpt3 cRNA mutated for the ATP-binding sites (PbRpt3 1.7%, PG-treated oocytes 80.8%) [1] is reported as 39.2 % GVBD.
With “PfI2 (inhibitor of PP1c, Plasmodium falciparum) (natural protein)” the PfPP1c phosphatase activity on pNPP; 37.5 to 600 pmol PfI2 with 1 µg PfPP1c; value at 600 pmol [2] was 60%.
Work on “HA-tagged PbRpt3 protein (full-size 45 kDa native PbRpt3 translated from microinjected cRNA in Xenopus oocytes) (from UniProt A0A509AIQ8 1-395) (natural protein)” yielded a percentage of GVBD of progesterone-treated Xenopus oocytes microinjected with PbRpt3 cRNA (control 80%) [3] of 1.7 % GVBD and a percentage of GVBD of progesterone-treated Xenopus oocytes microinjected with PbRpt3 cRNA (PG alone 86.7%) [4] of 1.7 % GVBD.
In the case of “PbRpt3-KATA/RKAEA (HA-tagged PbRpt3 with both RVxF motifs mutated) (natural protein)”, the percentage of GVBD of progesterone-treated Xenopus oocytes microinjected with PbRpt3-KATA/RKAEA cRNA (control 80%) [3] is reported as 76 % GVBD.
With “PbRpt3-RKAEA (HA-tagged PbRpt3 mutated 305-RKIEF-309 to 305-RKAEA-309) (natural protein)” the percentage of GVBD of progesterone-treated Xenopus oocytes microinjected with PbRpt3-RKAEA cRNA (control 80%) [3] was 23.3 % GVBD.
In the case of “PbRpt3-30 kDa (recombinant truncated PbRpt3, aa 131-395) (domain or fragment)”, the PfPP1c phosphatase activity on pNPP; 37.5 to 600 pmol PbRpt3-30 kDa preincubated with 1 µg PfPP1c; value at 600 pmol (% PP1c activity) [2] is reported as greater than 400.
“PbRpt3-KATA (HA-tagged PbRpt3 mutated 200-KVTF-203 to 200-KATA-203) (natural protein)” gave a percentage of GVBD of progesterone-treated Xenopus oocytes microinjected with PbRpt3-KATA cRNA (control 80%) [3] of 26.6 % GVBD.
